Data on 3 molecules can be found in paper doi:10.1101/2023.12.20.572533, “MUT-7 exoribonuclease activity and localisation are mediated by an ancient domain” (bioRxiv, 2023).

The target of series [1] is T1, MUT-7FL/MUT-8CTD chain MUT-7FL;MUT-8CTD (Caenorhabditis elegans;Caenorhabditis …, UniProt P34607;Q19672 1-910;322-578, |).
T1 sequence 1: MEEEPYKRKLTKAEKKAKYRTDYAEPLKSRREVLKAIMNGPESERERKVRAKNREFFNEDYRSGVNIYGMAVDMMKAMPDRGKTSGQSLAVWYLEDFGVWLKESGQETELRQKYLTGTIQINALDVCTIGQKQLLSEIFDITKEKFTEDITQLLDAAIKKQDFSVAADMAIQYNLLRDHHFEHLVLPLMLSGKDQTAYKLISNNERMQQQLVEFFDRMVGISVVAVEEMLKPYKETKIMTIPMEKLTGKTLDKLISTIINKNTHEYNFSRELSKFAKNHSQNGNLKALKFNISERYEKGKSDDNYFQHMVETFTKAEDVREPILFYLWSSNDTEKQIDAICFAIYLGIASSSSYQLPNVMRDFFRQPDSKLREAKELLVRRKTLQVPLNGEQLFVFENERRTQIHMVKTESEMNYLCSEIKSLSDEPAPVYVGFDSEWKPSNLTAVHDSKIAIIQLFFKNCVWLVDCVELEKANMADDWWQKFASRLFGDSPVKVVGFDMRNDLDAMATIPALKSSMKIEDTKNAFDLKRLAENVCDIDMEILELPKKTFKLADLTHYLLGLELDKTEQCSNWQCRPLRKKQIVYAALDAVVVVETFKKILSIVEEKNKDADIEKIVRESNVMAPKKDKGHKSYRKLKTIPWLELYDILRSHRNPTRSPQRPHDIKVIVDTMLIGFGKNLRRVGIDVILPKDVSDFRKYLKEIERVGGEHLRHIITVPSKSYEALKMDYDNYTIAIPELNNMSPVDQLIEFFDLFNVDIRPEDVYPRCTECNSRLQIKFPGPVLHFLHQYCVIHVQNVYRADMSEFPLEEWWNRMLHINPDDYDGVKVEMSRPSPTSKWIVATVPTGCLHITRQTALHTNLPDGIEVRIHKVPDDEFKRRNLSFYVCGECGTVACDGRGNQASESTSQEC
T1 sequence 2: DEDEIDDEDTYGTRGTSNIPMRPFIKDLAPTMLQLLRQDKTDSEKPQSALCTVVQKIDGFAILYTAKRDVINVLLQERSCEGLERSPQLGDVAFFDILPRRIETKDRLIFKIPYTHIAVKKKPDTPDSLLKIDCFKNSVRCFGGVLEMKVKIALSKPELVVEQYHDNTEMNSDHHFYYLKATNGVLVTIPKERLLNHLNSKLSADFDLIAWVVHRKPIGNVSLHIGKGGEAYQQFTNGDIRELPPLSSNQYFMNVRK
The series is described as follows: fluorescence polarisation; 50 mM KCl, 5 mM EDTA; FP: 50 nM RNA, 20 mM HEPES/NaOH pH 7.5, 50 mM KCl, 5 mM EDTA (C. elegans) or 250 mM NaCl (human EXD3 and MUT-7 D435A), room temperature, 30 min. As to conditions: protein: recombinant;recombinant; copies: 1;1; label: 5'-FAM; single strand.

Series [2] concerns the target T2, MUT-7^FL/MUT-8^FL complex (C. elegans, UniProt P34607 1-910; Q19672 1-578).
T2 construct: C. elegans MUT-7, residues 1-910; C. elegans MUT-8 (RDE-2), residues 1-578; also called MUT-7/MUT-8; full-length MUT-7/MUT-8; source: E. coli BL21(DE3) derivative, co-expressed and purified as a complex through several chromatographic steps
T2 sequence (looked up) 1: T1 sequence 1
T2 sequence (looked up) 2: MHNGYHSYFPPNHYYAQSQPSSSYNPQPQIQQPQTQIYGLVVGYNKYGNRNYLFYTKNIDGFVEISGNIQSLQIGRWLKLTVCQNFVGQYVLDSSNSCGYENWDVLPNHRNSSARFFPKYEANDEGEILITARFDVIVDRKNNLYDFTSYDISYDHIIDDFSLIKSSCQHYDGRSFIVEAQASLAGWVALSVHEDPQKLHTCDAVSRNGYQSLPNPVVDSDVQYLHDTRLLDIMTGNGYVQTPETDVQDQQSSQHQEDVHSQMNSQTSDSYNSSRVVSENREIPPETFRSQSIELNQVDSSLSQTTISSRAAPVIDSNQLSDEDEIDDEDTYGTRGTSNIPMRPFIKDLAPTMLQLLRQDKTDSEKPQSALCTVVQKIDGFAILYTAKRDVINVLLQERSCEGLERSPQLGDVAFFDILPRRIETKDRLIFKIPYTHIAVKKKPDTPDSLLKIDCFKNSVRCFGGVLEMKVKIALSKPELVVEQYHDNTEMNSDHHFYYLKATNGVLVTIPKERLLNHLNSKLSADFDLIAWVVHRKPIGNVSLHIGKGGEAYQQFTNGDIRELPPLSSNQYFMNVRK
The series is described as follows: pull-down; purified proteins (5 µM), GST-tagged MUT-16 constructs as bait on glutathione resin; 20 mM HEPES/NaOH pH 7.5, 150 mM NaCl, 10% glycerol, 0.05% IGEPAL, 2 mM DTT; 4 °C; SDS-PAGE, Coomassie. As to conditions: both partners purified.

Series [3] addresses T3, MUT-8^NTD (1-235), purified (C. elegans, UniProt Q19672 1-235).
T3 construct: C. elegans MUT-8 N-terminal domain construct, residues 1-235
T3 sequence (looked up): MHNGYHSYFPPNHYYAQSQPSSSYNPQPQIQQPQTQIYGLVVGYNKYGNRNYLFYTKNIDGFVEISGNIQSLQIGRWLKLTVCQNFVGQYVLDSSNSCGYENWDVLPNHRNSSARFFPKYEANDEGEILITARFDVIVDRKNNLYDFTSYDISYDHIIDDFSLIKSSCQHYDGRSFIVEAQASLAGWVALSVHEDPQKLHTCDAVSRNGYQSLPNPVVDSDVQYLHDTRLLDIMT
The series is described as follows: ITC; cell 46 µM MUT-8^NTD, syringe 600 µM MUT-16^584-724; 20 °C; 25 mM Tris/HCl pH 7.5, 150 mM NaCl, 0.25 mM TCEP; 19 injections of 2 µL; mean of three experiments. Conditions: both partners purified.

As for GUUGAUUGAAGAGUUC (ssRNA) [16-mer ssRNA], in series [1], the equilibrium dissociation constant (Kd) stood at 170 nM.

B1: GST-tagged MUT-16^1-724 (domain or fragment, C. elegans, UniProt O62011 1-724, looked up)
chain: MSESDDDYPELDISDQYIDPLGIVVGPPPASYTETDREETPMQNRTEDDTNSYGNSSGEHDYDSYLDSGDDDFDVDAYYANDNMDEPPPETIPDNLIQNVIGRNDNADYDFSDASNPEIMKRDLQLFLSSSLLSNPLKFRSGYSSDELDDCLKSCMGYSLQVTAVLLLPPEIISQLPNDSKTEHAHALVRGGWLQSKEGAFFPVISDSERETVVSLMNGSEEQHKRQERKKKEADTFESEEKEIRTLLTFNMIAELLMAVRNEYSIRSVKYQILSTAYTNMVTGAAHANIFRKYKDILQLDPEKLWNNDWFKEYTNRGTLKKFLTTARFSEIVVSQANGKTVELYFRADDEGNRPVVLFTDEHIADVRNKWKTGNQRNQNYGSQGNYRAGGQRSDDRRGPQQRRNVIVPDPNYQPSTFAGGISNNADDDGSLQPTTSSHFNRNTDRSTSRPPRAPTSPVNRVMETDPLMGQGTSSGAPQRSAIPNPFGGAPALSRSTITNGNRGPSYGDRGERVQDVGDTTSDSEITSEGSYSDEDPEQKEIKRQRRKDKLKKKQERELRSREKHTKSKQQPPSKIETRFNTYKKKSESSATDTSNTPPVDTVNVALPTPVVESSSTTAAPSIPVSTRPEVVVPPENPAPLREVGNFYSKSNHDEDRRNVQLPFTPADTHKPIKVAPKEPVRNPLLKERPSANGFINRRLPSHPAPPPVNQSQPANQPMQTAVY
notes: source: E. coli BL21(DE3) derivative, purified as GST-tagged fusion protein
On to B1, for which the binding result in series [2] is listed as “binds”.

B2: MUT-16^584-724, purified (SEC, ITC) (domain or fragment, C. elegans, UniProt O62011 584-724, looked up)
chain: KKKSESSATDTSNTPPVDTVNVALPTPVVESSSTTAAPSIPVSTRPEVVVPPENPAPLREVGNFYSKSNHDEDRRNVQLPFTPADTHKPIKVAPKEPVRNPLLKERPSANGFINRRLPSHPAPPPVNQSQPANQPMQTAVY
notes: source: E. coli BL21(DE3) derivative, purified (alone, or co-expressed with MUT-8^NTD and purified as a complex)
In series [3], B2 came in with an equilibrium dissociation constant (Kd) of around 13 µM.
